One block for each binder: values may come before it.
Experiments:
monkey C5-mmh = target: T1, monkey C5-mmh (monkey, UniProt P01031 19-1676 (human entry), limits assumed); assay: SPR, mAb captured via anti-hFc, 37C
T1 construct: Recombinant monkey C5 with a C-terminal myc-myc-hexahistidine tag
T1 chain: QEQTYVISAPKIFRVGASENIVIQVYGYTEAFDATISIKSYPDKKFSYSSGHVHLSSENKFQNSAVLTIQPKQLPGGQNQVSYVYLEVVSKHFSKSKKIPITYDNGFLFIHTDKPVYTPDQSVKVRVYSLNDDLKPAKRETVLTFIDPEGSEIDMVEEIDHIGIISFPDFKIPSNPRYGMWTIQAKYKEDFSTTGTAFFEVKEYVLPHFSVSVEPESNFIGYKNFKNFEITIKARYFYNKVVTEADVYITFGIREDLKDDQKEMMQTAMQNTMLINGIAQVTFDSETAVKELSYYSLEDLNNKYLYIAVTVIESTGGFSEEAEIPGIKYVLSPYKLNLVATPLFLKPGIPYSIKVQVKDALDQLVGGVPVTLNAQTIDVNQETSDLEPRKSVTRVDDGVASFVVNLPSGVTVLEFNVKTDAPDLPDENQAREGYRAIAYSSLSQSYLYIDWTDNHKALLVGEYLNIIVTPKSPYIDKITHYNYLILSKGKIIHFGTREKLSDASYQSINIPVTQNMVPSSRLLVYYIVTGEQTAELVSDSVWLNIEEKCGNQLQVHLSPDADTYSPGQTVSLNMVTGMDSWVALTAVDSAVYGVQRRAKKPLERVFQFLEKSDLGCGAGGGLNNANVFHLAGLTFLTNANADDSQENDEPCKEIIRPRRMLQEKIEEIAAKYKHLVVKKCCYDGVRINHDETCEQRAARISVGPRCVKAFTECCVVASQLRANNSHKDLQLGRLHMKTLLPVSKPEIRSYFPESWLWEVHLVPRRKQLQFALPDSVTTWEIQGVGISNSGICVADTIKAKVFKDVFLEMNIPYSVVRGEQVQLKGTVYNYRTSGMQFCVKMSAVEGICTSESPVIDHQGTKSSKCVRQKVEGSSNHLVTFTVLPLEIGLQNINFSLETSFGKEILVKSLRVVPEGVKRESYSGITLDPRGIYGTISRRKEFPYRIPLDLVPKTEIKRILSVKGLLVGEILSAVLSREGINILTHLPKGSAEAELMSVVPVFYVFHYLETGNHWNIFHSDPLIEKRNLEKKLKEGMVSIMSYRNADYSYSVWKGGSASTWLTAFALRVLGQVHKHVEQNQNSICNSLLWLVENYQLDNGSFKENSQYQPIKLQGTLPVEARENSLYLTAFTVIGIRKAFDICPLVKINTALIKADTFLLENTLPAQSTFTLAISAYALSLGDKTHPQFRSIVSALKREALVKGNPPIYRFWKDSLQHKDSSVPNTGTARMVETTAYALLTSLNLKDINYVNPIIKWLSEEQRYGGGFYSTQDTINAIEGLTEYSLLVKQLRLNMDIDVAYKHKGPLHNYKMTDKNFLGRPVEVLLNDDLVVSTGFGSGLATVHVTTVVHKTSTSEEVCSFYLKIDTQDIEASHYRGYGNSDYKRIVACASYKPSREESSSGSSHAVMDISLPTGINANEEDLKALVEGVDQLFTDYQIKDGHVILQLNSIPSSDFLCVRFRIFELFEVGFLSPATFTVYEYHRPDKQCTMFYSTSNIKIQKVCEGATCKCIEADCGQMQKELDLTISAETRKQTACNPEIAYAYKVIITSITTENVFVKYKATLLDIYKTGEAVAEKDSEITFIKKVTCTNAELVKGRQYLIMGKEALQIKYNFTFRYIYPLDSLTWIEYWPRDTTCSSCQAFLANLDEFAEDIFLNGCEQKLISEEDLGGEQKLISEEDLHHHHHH
Experimental: (§1) Equilibrium dissociation constants (KD values) for C5 binding to purified anti-C5 antibodies were determined using a real-time surface plasmon resonance biosensor assay on a Biacore T200 instrument. The Biacore sensor surface was derivatized by amine coupling with a monoclonal mouse anti-human Fc antibody (GE Healthcare, # BR-1008-39) to capture anti-C5 antibodies expressed with human Fc constant regions. Biacore binding studies were conducted in HBST running buffer (0.01M HEPES pH 7.4, 0.15M NaCl, 3 mM EDTA, 0.05% v/v Surfactant P20).
(§2) Human C5 was obtained from a commercial source (EMD). Other C5 reagents were expressed with a C-terminal myc-myc-hexahistidine tag (subsequently referred to as C5-mmh). […] Association of all the C5 reagents to each of the captured monoclonal antibodies was monitored for 3 minutes and their dissociation in HBST running buffer was monitored for 8 minutes. All the binding kinetics experiments were performed at either 25° C. or 37° C. Kinetic association (kₐ) and dissociation (kd) rate constants were determined by fitting the real-time sensorgrams to a 1:1 binding model using Scrubber 2.0c curve fitting software. Binding dissociation equilibrium constants (KD) and dissociative half-lives (t %) were calculated from the kinetic rate constants as: KD (M)=kd/kₐ and t_{1/2} (min)=In2/(60×kd)

human C5 R885H-mmh [1] = target: T2, human C5 R885H-mmh (human, UniProt P01031 19-1676); assay: SPR, mAb captured via anti-hFc, 37C
T2 construct: also called human C5 variant R885H
Experimental: as §1, §2

human C5 R885C-mmh [2] = target: T3, human C5 R885C-mmh (human, UniProt P01031 19-1676); assay: SPR, mAb captured via anti-hFc, 37C
T3 construct: also called human C5 variant R885C
Experimental: as §1, §2

human C5 R885H-mmh [3] = target: T2, human C5 R885H-mmh; assay: SPR, mAb captured via anti-hFc, 25C
Experimental: as §1, §2

human C5 R885C-mmh [4] = target: T3, human C5 R885C-mmh; assay: SPR, mAb captured via anti-hFc, 25C
Experimental: as §1, §2

African green monkey C5 = African green monkey C5 (African green monkey); assay: cell-based or functional assay
Cynomolgus monkey C5 = Cynomolgus monkey C5 (cynomolgus monkey, UniProt A0A2K5U1T1 19-1676); assay: cell-based or functional assay

- 100 nM monkey C5-mmh Bound (RU) (monkey C5-mmh): 47 RU
- Kd (monkey C5-mmh): 9.6 nM
- koff (monkey C5-mmh): 0.00129 s⁻¹
- kon (monkey C5-mmh): 135000 M⁻¹ s⁻¹
- t1/2 (monkey C5-mmh): 9 min
- 100 nM Human C5 R885H-mmh Bound (RU) (human C5 R885H-mmh [1]): 69 RU
- Kd (human C5 R885H-mmh [1]): 3.73 nM
- koff (human C5 R885H-mmh [1]): 0.000958 s⁻¹
- kon (human C5 R885H-mmh [1]): 257000 M⁻¹ s⁻¹
- t1/2 (human C5 R885H-mmh [1]): 12 min
- 100 nM Human C5 R885C-mmh Bound (RU) (human C5 R885C-mmh [2]): 55 RU
- Kd (human C5 R885C-mmh [2]): 7.32 nM
- koff (human C5 R885C-mmh [2]): 0.00103 s⁻¹
- kon (human C5 R885C-mmh [2]): 141000 M⁻¹ s⁻¹
- t1/2 (human C5 R885C-mmh [2]): 11 min
- 100 nM Human C5 R885H-mmh Bound (RU) (human C5 R885H-mmh [3]): 65 RU
- Kd (human C5 R885H-mmh [3]): 1.22 nM
- koff (human C5 R885H-mmh [3]): 0.000217 s⁻¹
- kon (human C5 R885H-mmh [3]): 178000 M⁻¹ s⁻¹
- t1/2 (human C5 R885H-mmh [3]): 53 min
- 100 nM Human C5 R885C-mmh Bound (RU) (human C5 R885C-mmh [4]): 63 RU
- Kd (human C5 R885C-mmh [4]): 2.03 nM
- koff (human C5 R885C-mmh [4]): 0.000218 s⁻¹
- kon (human C5 R885C-mmh [4]): 107000 M⁻¹ s⁻¹
- t1/2 (human C5 R885C-mmh [4]): 53 min
B1: H4H12176P2 (antibody, human IgG4, V domains shown)
VH: EVQLVESGGGLVQPGGSLRLSCAASGFHSNRYWMDWVRQAPGKGLEWVANIKQDGSEENYVDSVKGRFTISRDNAKNSLYLQMNSLRAEDTAVYYCARDRSTSWVPYWFFDLWGRGTLVTVSS
VL: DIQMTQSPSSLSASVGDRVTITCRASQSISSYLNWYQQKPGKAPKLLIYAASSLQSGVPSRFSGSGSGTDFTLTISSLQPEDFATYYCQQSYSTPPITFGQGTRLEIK
notes: Human IgG4 Fc with S108P hinge mutation (H4H)

- 100 nM monkey C5-mmh Bound (RU) (monkey C5-mmh): 13 RU
- Kd (monkey C5-mmh): 118 nM
- koff (monkey C5-mmh): 0.00637 s⁻¹
- kon (monkey C5-mmh): 54000 M⁻¹ s⁻¹
- t1/2 (monkey C5-mmh): 2 min
- 100 nM Human C5 R885H-mmh Bound (RU) (human C5 R885H-mmh [1]): 36 RU
- Kd (human C5 R885H-mmh [1]): 7.43 nM
- koff (human C5 R885H-mmh [1]): 0.000712 s⁻¹
- kon (human C5 R885H-mmh [1]): 95800 M⁻¹ s⁻¹
- t1/2 (human C5 R885H-mmh [1]): 16 min
- 100 nM Human C5 R885C-mmh Bound (RU) (human C5 R885C-mmh [2]): 25 RU
- Kd (human C5 R885C-mmh [2]): 19.5 nM
- koff (human C5 R885C-mmh [2]): 0.000997 s⁻¹
- kon (human C5 R885C-mmh [2]): 51200 M⁻¹ s⁻¹
- t1/2 (human C5 R885C-mmh [2]): 12 min
- 100 nM Human C5 R885H-mmh Bound (RU) (human C5 R885H-mmh [3]): 99 RU
- Kd (human C5 R885H-mmh [3]): 1.16 nM
- koff (human C5 R885H-mmh [3]): 4.37e-05 s⁻¹
- kon (human C5 R885H-mmh [3]): 37700 M⁻¹ s⁻¹
- t1/2 (human C5 R885H-mmh [3]): 264 min
- 100 nM Human C5 R885C-mmh Bound (RU) (human C5 R885C-mmh [4]): 80 RU
- Kd (human C5 R885C-mmh [4]): 0.737 nM
- koff (human C5 R885C-mmh [4]): 2.2e-05 s⁻¹
- kon (human C5 R885C-mmh [4]): 29900 M⁻¹ s⁻¹
- t1/2 (human C5 R885C-mmh [4]): 525 min
B2: H4H12183P2 (antibody, human IgG4, V domains shown)
VH: QVQLQESGPALVKPSQTLSLTCTVSGGSIIRGSTYWSWVRQFPGKGLEWIGYSYYSGTAYYNPSLESRATISVDTSKNQFSLNLKSVTAADTAVYYCTREIGVAGLFDIWGQGTLVTVSS
VL: not shown
notes: as for B1

The next lines start with the binder.

B3: H4H12169P (antibody, human IgG4, V domains shown)
VH: EVQLVESGGGLAQPGGSLRLSCAASGFTFRSYAMSWVRQAPGKGPEWVSGIGGNGVTTYYADSVKGRFTISRDNSKNTLFLQMNSLRAEDTAVYYCVQGGLGGYFTGYWGQGTLVTVSS
VL: DIQMTQSPSSLSASVGDRVTITCRASQSISTYLNWYQQNPGKAPKLLIFDASSLQSGVPSRFSGSGSGTDFTLTIRGLQPEDFATYYCQQSYSAPLTFGGGTKVEIK
notes: as for B1
- 100 nM monkey C5-mmh Bound (RU) (monkey C5-mmh): 64 RU
- Kd (monkey C5-mmh): 14.3 nM
- koff (monkey C5-mmh): 0.00361 s⁻¹
- kon (monkey C5-mmh): 251000 M⁻¹ s⁻¹
- t1/2 (monkey C5-mmh): 3 min
- 100 nM Human C5 R885H-mmh Bound (RU) (human C5 R885H-mmh [1]): 79 RU
- Kd (human C5 R885H-mmh [1]): 1.72 nM
- koff (human C5 R885H-mmh [1]): 0.000739 s⁻¹
- kon (human C5 R885H-mmh [1]): 429000 M⁻¹ s⁻¹
- t1/2 (human C5 R885H-mmh [1]): 16 min
- 100 nM Human C5 R885C-mmh Bound (RU) (human C5 R885C-mmh [2]): 75 RU
- Kd (human C5 R885C-mmh [2]): 2.24 nM
- koff (human C5 R885C-mmh [2]): 0.000737 s⁻¹
- kon (human C5 R885C-mmh [2]): 329000 M⁻¹ s⁻¹
- t1/2 (human C5 R885C-mmh [2]): 16 min
- 100 nM Human C5 R885H-mmh Bound (RU) (human C5 R885H-mmh [3]): 173 RU
- Kd (human C5 R885H-mmh [3]): 0.147 nM
- koff (human C5 R885H-mmh [3]): 7.09e-05 s⁻¹
- kon (human C5 R885H-mmh [3]): 484000 M⁻¹ s⁻¹
- t1/2 (human C5 R885H-mmh [3]): 163 min
- 100 nM Human C5 R885C-mmh Bound (RU) (human C5 R885C-mmh [4]): 168 RU
- Kd (human C5 R885C-mmh [4]): 0.251 nM
- koff (human C5 R885C-mmh [4]): 6.99e-05 s⁻¹
- kon (human C5 R885C-mmh [4]): 278000 M⁻¹ s⁻¹
- t1/2 (human C5 R885C-mmh [4]): 165 min

B4: H4H12166P (antibody, V domains shown)
VH: QVQLQESGPGLVKPSETLSLTCTVSGDSVSSSYWTWIRQPPGKGLEWIGYIYYSGSSNYNPSLKSRATISVDTSKNQFSLKLSSVTAADTAVYYCAREGNVDTTMIFDYWGQGTLVTVSS
VL: AIQMTQSPSSLSASVGDRVTITCRASQGIRNDLGWYQQKPGKAPKLLIYAASSLQSGVPSRFAGRGSGTDFTLTISSLQPEDFATYYCLQDFNYPWTFGQGTKVEIK
- AGM AP % Max Inhibition, hemolysis assay, 5% serum (African green monkey C5): 44.2%
- AGM CP % Max Inhibition, hemolysis assay, 5% serum (African green monkey C5): 81%
- AGM Serum AP IC50, hemolysis assay, 5% serum (African green monkey C5): 233 nM
- Cyno AP % Max Inhibition, hemolysis assay, 5% serum (Cynomolgus monkey C5): 98.6%
- Cyno CP % Max Inhibition, hemolysis assay, 5% serum (Cynomolgus monkey C5): 94.2%
- Cyno Serum AP IC50, hemolysis assay, 5% serum (Cynomolgus monkey C5): 8.85 nM
- Cyno Serum CP IC50, hemolysis assay, 5% serum (Cynomolgus monkey C5): 20.1 nM

— patent publication US20170355757A1 (Regeneron, published 2017)
